One block for each molecule: values may come before it.
Columns and labels:
[1] = system: human FSHR; test: ^125I-FSH binding to wild type and mutant FSH receptors on intact stably transfected HEK 293 cells; settings: for FSH binding / Kd compared with the wild type receptor, in words: intact HEK 293 cells
Experimental: (§1) Mutant FSHR cDNAs were prepared in the pSELECT vector using the Altered Sites Mutagenesis system (Promega), sequenced on a Beckman CEQ 2000XL capillary sequencer, subcloned into pcDNA3 (Invitrogen), and sequenced again to verify mutation sequences. […] Wild type and mutant receptor constructs were transfected into HEK 293 cells by the calcium phosphate method as previously described. Stable cell lines were established in minimum essential medium containing 10% horse serum and 500 μg/ml of G418. These cells were used for hormone binding, cAMP production. All assays were carried out in duplicate and repeated 4-5 times, and means±S.D. were calculated.
(§2) The Kd values were determined by Scatchard plots. For intracellular cAMP assay, cells were washed twice with Dulbecco's modified Eagle's medium and incubated in the medium containing 0.1 μg/ml isobutylmethylxanthine for 15 mm. Increasing concentrations of FSH were then added and incubation was continued for 45 mm at 37° C. After removing the medium, the cells were rinsed once with fresh medium without isobutylmethylxanthine, lysed in 70% ethanol, freeze-thawed in liquid nitrogen, and scraped.
Each mutant human FSHR cDNA was prepared in a pSELECT vector using the non-PCR based Altered Sites Mutagenesis System (Promega), sequenced on a Beckman CEQ 2000XL capillary sequencer and subcloned into pcDNA3 (Invitrogen) as described. After subcloning pcDNA3 the mutant cDNAs were sequenced again. Plasmids were transfected into human embryonic kidney (HEK) 293 cells by the calcium phosphate method. Stable cell lines were established in minimum essential medium containing 10% horse serum and 500 μg/ml of G-418, and then used for hormone binding and cAMP assay. All assays were carried out in duplicate and repeated 4-6 times. Means and standard variations were calculated.
(§3) Human FSH (the National Hormone and Pituitary Program) was radioiodinated as previously described for radioiodination of hCG. […] The Kd values were determined by Scatchard plots. Truncated exodomain was solubilized in Nonidet P-40 and assayed for hormone binding as described previously. For intracellular cAMP assay, cells were washed twice with Dulbecco's modified Eagle's media and incubated in the media containing isobutylmethylxanthine (0.1 mg/ml) for 15 minutes. Increasing concentrations of FSH were then added and the incubation was continued for 45 minutes at 37° C. After removing the media, the cells were rinsed once with fresh media without isobutylmethylxanthine, lysed in 70% ethanol, freeze-thawed in liquid nitrogen, and scraped. […] Exoloop 3 of FSHR was modeled based on the crystal structure of rhodopsin as a template.

[2] = system: human FSHR; test: FSH dependent intracellular cAMP assay, wild type and mutant FSHR in HEK 293 cells; assay type: cell-based; settings: for FSH dependent cAMP induction / EC50 compared with the wild type receptor, in words: HEK 293 cells
Experimental: as §1, §2, §3

B1: del: human FSHR deletion mutant, L583 deleted (protein, UniProt P23945 18-695, looked up, variant L583*)
Follicle-stimulating hormone …: CHHRICHCSNRVFLCQESKVTEIPSDLPRNAIELRFVLTKLRVIQKGAFSGFGDLEKIEISQNDVLEVIEADVFSNLPKLHEIRIEKANNLLYINPEAFQNLPNLQYLLISNTGIKHLPDVHKIHSLQKVLLDIQDNINIHTIERNSFVGLSFESVILWLNKNGIQEIHNCAFNGTQLDELNLSDNNNLEELPNDVFHGASGPVILDISRTRIHSLPSYGLENLKKLRARSTYNLKKLPTLEKLVALMEASLTYPSHCCAFANWRRQISELHPICNKSILRQEVDYMTQARGQRSSLAEDNESSYSRGFDMTYTEFDYDLCNEVVDVTCSPKPDAFNPCEDIMGYNILRVLIWFISILAITGNIIVLVILTTSQYKLTVPRFLMCNLAFADLCIGIYLLLIASVDIHTKSQYHNYAIDWQTGAGCDAAGFFTVFASELSVYTLTAITLERWHTITHAMQLDCKVQLRHAASVMVMGWIFAFAAALFPIFGISSYMKVSICLPMDIDSPLSQLYVMSLLVLNVLAFVVICGCYIHIYLTVRNPNIVSSSSDTRIAKRMAMLIFTDFCMAPISFFAISASLKVPLITVSKAKILLVLFHPINSCANPFLYAIFTKNFRRDFFILLSKCGCYEMQAQIYRTETSSTVHNTHPRNGHCSSAPRVTSGSTYILVPLSHLAQN
- improvement of hormone binding affinity (decrease of Kd) compared with wild type ([1]; FSH binding, mutant versus wild type FSHR): more than 4 fold

B2: R^11A: human FSHR with Ala substituted for R11 (protein)
chain: CHHRICHCSNAVFLCQESKVTEIPSDLPRNAIELRFVLTKLRVIQKGAFSGFGDLEKIEISQNDVLEVIEADVFSNLPKLHEIRIEKANNLLYINPEAFQNLPNLQYLLISNTGIKHLPDVHKIHSLQKVLLDIQDNINIHTIERNSFVGLSFESVILWLNKNGIQEIHNCAFNGTQLDELNLSDNNNLEELPNDVFHGASGPVILDISRTRIHSLPSYGLENLKKLRARSTYNLKKLPTLEKLVALMEASLTYPSHCCAFANWRRQISELHPICNKSILRQEVDYMTQARGQRSSLAEDNESSYSRGFDMTYTEFDYDLCNEVVDVTCSPKPDAFNPCEDIMGYNILRVLIWFISILAITGNIIVLVILTTSQYKLTVPRFLMCNLAFADLCIGIYLLLIASVDIHTKSQYHNYAIDWQTGAGCDAAGFFTVFASELSVYTLTAITLERWHTITHAMQLDCKVQLRHAASVMVMGWIFAFAAALFPIFGISSYMKVSICLPMDIDSPLSQLYVMSLLVLNVLAFVVICGCYIHIYLTVRNPNIVSSSSDTRIAKRMAMLIFTDFLCMAPISFFAISASLKVPLITVSKAKILLVLFHPINSCANPFLYAIFTKNFRRDFFILLSKCGCYEMQAQIYRTETSSTVHNTHPRNGHCSSAPRVTSGSTYILVPLSHLAQN
- FSH binding / Kd compared with the wild type receptor, in words [1]: improved hormone binding
- FSH binding / Kd compared with the wild type receptor, in words ([1]; listed as FSHR^R11A): lower than the wild type value

B6: I^23A: human FSHR with Ala substituted for I23 (protein)
chain: CHHRICHCSNRVFLCQESKVTEAPSDLPRNAIELRFVLTKLRVIQKGAFSGFGDLEKIEISQNDVLEVIEADVFSNLPKLHEIRIEKANNLLYINPEAFQNLPNLQYLLISNTGIKHLPDVHKIHSLQKVLLDIQDNINIHTIERNSFVGLSFESVILWLNKNGIQEIHNCAFNGTQLDELNLSDNNNLEELPNDVFHGASGPVILDISRTRIHSLPSYGLENLKKLRARSTYNLKKLPTLEKLVALMEASLTYPSHCCAFANWRRQISELHPICNKSILRQEVDYMTQARGQRSSLAEDNESSYSRGFDMTYTEFDYDLCNEVVDVTCSPKPDAFNPCEDIMGYNILRVLIWFISILAITGNIIVLVILTTSQYKLTVPRFLMCNLAFADLCIGIYLLLIASVDIHTKSQYHNYAIDWQTGAGCDAAGFFTVFASELSVYTLTAITLERWHTITHAMQLDCKVQLRHAASVMVMGWIFAFAAALFPIFGISSYMKVSICLPMDIDSPLSQLYVMSLLVLNVLAFVVICGCYIHIYLTVRNPNIVSSSSDTRIAKRMAMLIFTDFLCMAPISFFAISASLKVPLITVSKAKILLVLFHPINSCANPFLYAIFTKNFRRDFFILLSKCGCYEMQAQIYRTETSSTVHNTHPRNGHCSSAPRVTSGSTYILVPLSHLAQN
- EC50 value of cAMP induction, fold higher than wild type ([2]; FSH dependent cAMP): 23 fold
- maximal cAMP level, fold lower than wild type ([2]; FSH dependent cAMP): 2.6 fold

Next, values leading:

- FSH dependent cAMP induction / EC50 compared with the wild type receptor, in words [2]: lower than the wild type value
B3: V^12A: human FSHR with Ala substituted for V12 (protein)
chain: CHHRICHCSNRAFLCQESKVTEIPSDLPRNAIELRFVLTKLRVIQKGAFSGFGDLEKIEISQNDVLEVIEADVFSNLPKLHEIRIEKANNLLYINPEAFQNLPNLQYLLISNTGIKHLPDVHKIHSLQKVLLDIQDNINIHTIERNSFVGLSFESVILWLNKNGIQEIHNCAFNGTQLDELNLSDNNNLEELPNDVFHGASGPVILDISRTRIHSLPSYGLENLKKLRARSTYNLKKLPTLEKLVALMEASLTYPSHCCAFANWRRQISELHPICNKSILRQEVDYMTQARGQRSSLAEDNESSYSRGFDMTYTEFDYDLCNEVVDVTCSPKPDAFNPCEDIMGYNILRVLIWFISILAITGNIIVLVILTTSQYKLTVPRFLMCNLAFADLCIGIYLLLIASVDIHTKSQYHNYAIDWQTGAGCDAAGFFTVFASELSVYTLTAITLERWHTITHAMQLDCKVQLRHAASVMVMGWIFAFAAALFPIFGISSYMKVSICLPMDIDSPLSQLYVMSLLVLNVLAFVVICGCYIHIYLTVRNPNIVSSSSDTRIAKRMAMLIFTDFLCMAPISFFAISASLKVPLITVSKAKILLVLFHPINSCANPFLYAIFTKNFRRDFFILLSKCGCYEMQAQIYRTETSSTVHNTHPRNGHCSSAPRVTSGSTYILVPLSHLAQN

- FSH dependent cAMP induction / EC50 compared with the wild type receptor, in words [2]: lower than the wild type value
B4: S^9A: human FSHR with Ala substituted for S9 (protein)
chain: CHHRICHCANRVFLCQESKVTEIPSDLPRNAIELRFVLTKLRVIQKGAFSGFGDLEKIEISQNDVLEVIEADVFSNLPKLHEIRIEKANNLLYINPEAFQNLPNLQYLLISNTGIKHLPDVHKIHSLQKVLLDIQDNINIHTIERNSFVGLSFESVILWLNKNGIQEIHNCAFNGTQLDELNLSDNNNLEELPNDVFHGASGPVILDISRTRIHSLPSYGLENLKKLRARSTYNLKKLPTLEKLVALMEASLTYPSHCCAFANWRRQISELHPICNKSILRQEVDYMTQARGQRSSLAEDNESSYSRGFDMTYTEFDYDLCNEVVDVTCSPKPDAFNPCEDIMGYNILRVLIWFISILAITGNIIVLVILTTSQYKLTVPRFLMCNLAFADLCIGIYLLLIASVDIHTKSQYHNYAIDWQTGAGCDAAGFFTVFASELSVYTLTAITLERWHTITHAMQLDCKVQLRHAASVMVMGWIFAFAAALFPIFGISSYMKVSICLPMDIDSPLSQLYVMSLLVLNVLAFVVICGCYIHIYLTVRNPNIVSSSSDTRIAKRMAMLIFTDFLCMAPISFFAISASLKVPLITVSKAKILLVLFHPINSCANPFLYAIFTKNFRRDFFILLSKCGCYEMQAQIYRTETSSTVHNTHPRNGHCSSAPRVTSGSTYILVPLSHLAQN

- FSH dependent cAMP induction / EC50 compared with the wild type receptor, in words [2]: lower than the wild type value
B5: F^13A: human FSHR with Ala substituted for F13 (protein)
chain: CHHRICHCSNRVALCQESKVTEIPSDLPRNAIELRFVLTKLRVIQKGAFSGFGDLEKIEISQNDVLEVIEADVFSNLPKLHEIRIEKANNLLYINPEAFQNLPNLQYLLISNTGIKHLPDVHKIHSLQKVLLDIQDNINIHTIERNSFVGLSFESVILWLNKNGIQEIHNCAFNGTQLDELNLSDNNNLEELPNDVFHGASGPVILDISRTRIHSLPSYGLENLKKLRARSTYNLKKLPTLEKLVALMEASLTYPSHCCAFANWRRQISELHPICNKSILRQEVDYMTQARGQRSSLAEDNESSYSRGFDMTYTEFDYDLCNEVVDVTCSPKPDAFNPCEDIMGYNILRVLIWFISILAITGNIIVLVILTTSQYKLTVPRFLMCNLAFADLCIGIYLLLIASVDIHTKSQYHNYAIDWQTGAGCDAAGFFTVFASELSVYTLTAITLERWHTITHAMQLDCKVQLRHAASVMVMGWIFAFAAALFPIFGISSYMKVSICLPMDIDSPLSQLYVMSLLVLNVLAFVVICGCYIHIYLTVRNPNIVSSSSDTRIAKRMAMLIFTDFLCMAPISFFAISASLKVPLITVSKAKILLVLFHPINSCANPFLYAIFTKNFRRDFFILLSKCGCYEMQAQIYRTETSSTVHNTHPRNGHCSSAPRVTSGSTYILVPLSHLAQN

Source: patent US20050142135A1, “Agents and methods for modulating interactions between gonadotropin hormones and receptors” (University of Kentucky Research Foundation, priority 2003, published 2005)
